Measured values as given in the nanobody polyreactivity screen of Harvey et al. (2022).

Assay: yeast display, Sf9 membrane polyspecificity reagent, FACS + sequencing; frameworks hold sequencing errors
How it was run: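 A synthetic nanobody library was expressed on Saccharomyces cerevisiae BJ5465 by galactose induction for 36–48 hours. The library was stained for 1 hour at 4 °C with 10% biotinylated, detergent-solubilized Sf9 membrane reagent and enriched with streptavidin microbeads before FACS. Low and high (top ~1%) gates were set on anti-HA fluorescence for expression and streptavidin fluorescence for reagent binding, and each polyreactivity label reflects the gate of origin.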

Row | Sequence | polyreactivity (PSR sort gate)
1 | QVQLVESGGGLVQAGGSLRLSCAASGRTFYEYTIGWYRQAPGKERELVAAITWSVGSTYYADSVKGRFTISRDIAKNTVYLQMNSLKPEETAVYDCAAYYYVWYYYWGQGTQVTVSS | low polyreactivity
2 | QVQLVESGGGLVQAGGSLRLSCAASGRTFYFNAMGWYRPAPGKERELVAAITSGVRTKYADSVKGRFTISRDNAKNTVYLQMNSLKPEDTAVYYCAAGGYPSRYAPWMEYWGQGTQVTVSS | high polyreactivity
3 | QVQLVESGGGLVQAGGSLRLSCAASGRTFYFYAMGWYRQAPGKERELVAAISSGASTYYADSVKGRFTISRDNAKNTVYLQMNSLKPEDTAVYYCAAEFWTQWSGYEYWGQGTQVTVSS | high polyreactivity
4 | QVQLVESGGGLVQAGGSLRLSCAASGRTFYFYAMGWYRQAPGKERELVAAISWTGGITYYADSVKGRFTISRDNAKNTVYLQMNSLKPEDTAVYYCAAGYYYKVYWGQGTQVTVSS | low polyreactivity
5 | QVQLVESGGGLVQAGGSLRLSCAASGRTFYFYAMGWYRQAPGKERELVAGISWRGVSTYYADSVKGRFTISRDNAKNTVYLQMNSLKPEDTAVYYCAADIGRHTDNYDPRYDYWGQGTQVTVSS | low polyreactivity
6 | QVQLVESGGGLVQAGGSLRLSCAASGRTFYGNAMGWYRQAPGKERELVAAISWSGGSTYYADSVKGRFTISRDNAKNTVYLQMNSLKPEDTAVYYCNADYFAWDLMYYWGHGTQVTVSS | low polyreactivity
7 | QVQLVESGGGLVQAGGSLRLSCAASGRTFYGNAMGWYSQAPGKERELVAAITDVDSTYYADSVKGRFTISRDNAKNSVYLQMNSLKPEDTAVYYCNADTSWGYPYGYWGQGTQVTVSS | low polyreactivity
8 | QVQLVESGGGLVQAGGSLRLSCAASGRTFYGNTMGWYIQAPGKERELVAAITRSGGSTYYADSVKGRFTISRDNAKNTVYFQMNSLKPEDTAVYYCAASRTYYAPYGYWGQGTQVTVSS | high polyreactivity
9 | QVQLVESGGGLVQAGGSLRLSCAASGRTFYGYAMGWSRPAPGKERELVAAISTGGSTSYADSVKGRFTISRDNAKNTVYLQMNSLKPEDTAVYYCAAVYYLTDWYGVWYSFDYWGQGTQVTVSS | low polyreactivity
10 | QVQLVESGGGLVQAGGSLRLSCAASGRTFYGYAMGWYREAPGKERELVASISWSTGSTHYADSVKGRFTISRDNAKNTVYLQMNSLKPEDTAVYYCAAPFWRDSYVQIDYDYWGQGTQVTVSS | low polyreactivity
11 | QVQLVESGGGLVQAGGSLRLSCAASGRTFYGYAMGWYRQAPAKERELVAAITWSVGRTYYADSVKGRFTISRDNAKNTVYLQMNSLKPEDTAVYYCAAQRAGLFNYWGQGTQVTVSS | low polyreactivity
12 | QVQLVESGGGLVQAGGSLRLSCAASGRTFYGYAMGWYRQAPGKERELVAAITYSGGRTYYADSVKGRFTISRDNAKNTVYLQMNSLKPEDTAVYYCNTGYWYVSLGSYDYYGEYDYWGQGTQVTVSS | high polyreactivity
13 | QVQLVESGGGLVQAGGSLRLSCAASGRTFYGYAMGWYRQAPGKERELVASISRDGYTNYADSVKGRFTISRDNANNTVYLQMTSLKPEDTAVYYCAADFWYYRYPIYYYSYDYWGQGTQVTVSS | low polyreactivity
14 | QVQLVESGGGLVQAGGSLRLSCAASGRTFYHNAMGWYRQAPGKERELVAAITSGARTKYADSVKGRFTISRDNAKNTVYLQMNSLKPEDTAVYYCAAVYYFGKGKTFDYWGQGTQVTVSS | high polyreactivity
15 | QVQLVESGGGLVQAGGSLRLSCAASGRTFYIYAMGWYRPAPGKERELVAAITYGGGRTFYADSVKGRFTISRDNAKNTVYLQMNSLKPEDTAVYYCAATVRGKRSTYDYWGQGTQVTVSS | high polyreactivity
16 | QVQLVESGGGLVQAGGSLRLSCAASGRTFYIYAMGWYRQAPGKERELVAAISTTGGRTYYADSVKGRFTISRDNAKNTVYLQMNSLKPVDTAVYFCAAPARTRYDYWGQGTQVTVSS | high polyreactivity
17 | QVQLVESGGGLVQAGGSLRLSCAASGRTFYIYVMGWYRQAPGKERELVAGITWRGGITYYADSVKGRFTISRDNAKNNVYLQMNSLKPEDTAVYYCAVDDLGSEYDYWGQGTQVTVSS | low polyreactivity
18 | QVQLVESGGGLVQAGGSLRLSCAASGRTFYKNAMGWYRQAPGKERELVARISRGGSTNYADSVKGRFTISRDNAKNTVYLQMNSLKPEDTAVYYCAKEYGTHGKTYDYWGQGTQVTVSS | high polyreactivity
19 | QVQLVESGGGLVQAGGSLRLSCAASGRTFYKNAMGWYRQAPGKERELVATITSGGSTNYADSVKGRFTISRDNAKNTVYLQMNSLKPEDTAVYYCAAAKPVQFRIAQAHVGYWGQGTQVTVSS | low polyreactivity
20 | QVQLVESGGGLVQAGGSLRLSCAASGRTFYKNTMGWYIQAPGKERELVATISQRGGSTYYADSVKGRFTISRDNAKNTVYLQMNSLKPEDTAVYYCNARKYTQSIHYDYWGQGTQVTVSS | high polyreactivity
21 | QVQLVESGGGLVQAGGSLRLSCAASGRTFYKNTMGWYRQAPGKERELVAAIRWRGSSTYYADSVKGRFTISRDNAKNSVYLKMNSLKPEDTAVYYCAAPSSVRGKVISADYAYWGQGTQVTVSS | high polyreactivity
22 | QVQLVESGGGLVQAGGSLRLSCAASGRTFYKNTMGWYRQAPGKERELVATISQRRGSTYYADSVKGRFTISRDNAKNTVYLQMNSLKTEDTAVYYCNARKYTQSIHYDYWGQGTQVTVSS | high polyreactivity

Row | Sequence | polyreactivity (PSR sort gate)
23 | QVQLVESGGGLVQAGGSLRLSCAASGRTFYKYAKGWYRQAPGKERELVAAISWSGGSTYYADSVKGRFTISRDNAKNTVYLLMKSLKPEDTAVYYSNRASYPFVKPRYECWGQGTQVTVSS | high polyreactivity
24 | QVQLVESGGGLVQAGGSLRLSCAASGRTFYKYAMGWSRQAPGKERELVAAISSDGTTYYADSVKGRFTISRDNAKNTVYLQMNSLKPEDTAVYYCAADPPPPFLYVSVQEYDYWGQGTQVTVSS | low polyreactivity
25 | QVQLVESGGGLVQAGGSLRLSCAASGRTFYKYAMGWYIQAPGKERELVARISGRGGRTYYADSVKGRFTISRDNAKNTVYLQMNSLKPEDTEVYYCASDWVPINVKSLVVTYDYWGQGTQVTVSS | low polyreactivity
26 | QVQLVESGGGLVQAGGSLRLSCAASGRTFYLNAMGWYRQAPGKERELVAAIRFSGGSTYYADSVKGRFTISRDNAKNTVLLQMNSLKPEDTAVYYCNAGPYHSLYPTVSEYGYWGQGTQVTVSS | low polyreactivity
27 | QVQLVESGGGLVQAGGSLRLSCAASGRTFYLNTMGWYRQAPGKERELVAGITSSGTRTYYADSVKGRFTISRDNAKNTVYLQMNSLKPEDTAVYYSAKTWGGQIRPRYRYGSGYDYWGQGTQVTVSS | high polyreactivity
28 | QVQLVESGGGLVQAGGSLRLSCAASGRTFYLYAMGWYRQAPGKERELVAAINTNGARTYYADSVKGRFTISRDHAKNTVYLQMNSLIPEDTAVYYCNADAYRVIANWIYDYWGQGTQVTVSS | low polyreactivity
29 | QVQLVESGGGLVQAGGSLRLSCAASGRTFYLYGMGWYRQAPGKERELVAAITITDSTNYADSVKGRFTISRDNAKNTVYLQMNSLKPEDTAVYYCAKRRYYSTPRWGSSTYDYWGQGTQVTVSS | low polyreactivity
30 | QVQLVESGGGLVQAGGSLRLSCAASGRTFYNAMGWYRQAPGKERELVAAITTGGGTKYADSVKGRFTISRDNAKNTVYLQMNSLKPEDTAVYYCNTDEWYHFYHGAHKYDYWGQGTQVTVSS | low polyreactivity
31 | QVQLVESGGGLVQAGGSLRLSCAASGRTFYNNAMGWYRQAPGKERELVAVISRGGTTYYPDSVKGRFTISRDNAKNTVYLQMNSLKAEDTSVYYCAKQVPSGDSSSQMGSWGQGTQVTVSS | low polyreactivity
32 | QVQLVESGGGLVQAGGSLRLSCAASGRTFYNYAMGGYRQAPGKERELVAAISWSDGTTYYADSVKGRFTISRDNAKNTVYLQMNSLKPEDTAVYYCAAEFESSFALGFYYWGQGTQVTVSS | high polyreactivity
33 | QVQLVESGGGLVQAGGSLRLSCAASGRTFYPNVMGWYRQAPGKERELVAAITSGGSTYYADSVKGRFTISRDNAKNTVALEMNSQKPEDTAVYYCAVAYAGGGSRKYDYWGQGTQVTVSS | low polyreactivity
34 | QVQLVESGGGLVQAGGSLRLSCAASGRTFYPYAMGWSRQAPGKERELVAAISWNGGRTYYADSVKGRFTISRDNAKNTVYLQMNSLKPEDTAVYYCAADTAYYDFDYWGQGTQVTVSS | low polyreactivity
35 | QVQLVESGGGLVQAGGSLRLSCAASGRTFYPYAMGWYRQAPGKERELVATITWSGTTTYYADSVKGRFTISRDNAKNTVYLQMNSLKPEDTAVYYCAADVWEVVTPYGTIDDDYWGQGTQVTVSS | high polyreactivity
36 | QVQLVESGGGLVQAGGSLRLSCAASGRTFYPYAMGWYRQAPGTERELVAAISRSGGGTYYADSVKGRFTISRDNAKNTVYLQMNSLKPEDTAVYYCAAARYLSIYNYWGQGTQVTVSS | low polyreactivity
37 | QVQLVESGGGLVQAGGSLRLSCAASGRTFYPYVMGWYRQAPGKERELVARIRWSGSSTYYADSVKGRFTISRDNAKNTVYLQMNSLKPEDTAVYYCNARPSWYVFGSSVHSGMGYWGQGTQVTVSS | high polyreactivity
38 | QVQLVESGGGLVQAGGSLRLSCAASGRTFYPYVMGWYRQAPGKERELVATISWSGGSTYYADSVKGRFTISRDNAKNTVYLQMNSLKPEDTAVYYCAALWPYGYWGQGTQVTVSS | low polyreactivity
39 | QVQLVESGGGLVQAGGSLRLSCAASGRTFYPYVMRWYRQAPGKERELVAAITNRGGSTYYADSVKGRFTISRDNAKKTVYLQMNSLKPEDTAVYYCAKRQVGVGHYDHWGQGTQVTVSS | low polyreactivity
40 | QVQLVESGGGLVQAGGSLRLSCAASGRTFYQNAMGWYRQAPGKERELVAAISYRGASTYYADSVKGRFTISRDNAKNTVYLQMHSLKPEDTAVYYCAVAARTRARVLYGYDYWGQGTQVTVSS | low polyreactivity
41 | QVQLVESGGGLVQAGGSLRLSCAASGRTFYQYAMGWYRPAPGKERELVAAITTSGGSTYYADSVKGRFTNSRDNAKNTVYLQMNSLKPEDTAVYYCAAPYTGYRERGSYKSDYWGQGTQVTESS | low polyreactivity
42 | QVQLVESGGGLVQAGGSLRLSCAASGRTFYQYAMGWYRQAPGKERELVAAISRSGTSTYYADSVKGRFTISRDNAKNTVYLQMNSLKPEDTAVYYCYVLRYDYWGQGTQVTVSS | high polyreactivity
43 | QVQLVESGGGLVQAGGSLRLSCAASGRTFYQYAMGWYRQAPGKERELVAAITRRGGSTYYADSVKGRFTISRDNAKNTVYLQMNSLKPDDTAVYYCNAQYKKGFDYWGQGPQVTVSS | high polyreactivity
